# Assay results: patent publication US20080279844
# T1: IκBα, P25963
# T1 chain: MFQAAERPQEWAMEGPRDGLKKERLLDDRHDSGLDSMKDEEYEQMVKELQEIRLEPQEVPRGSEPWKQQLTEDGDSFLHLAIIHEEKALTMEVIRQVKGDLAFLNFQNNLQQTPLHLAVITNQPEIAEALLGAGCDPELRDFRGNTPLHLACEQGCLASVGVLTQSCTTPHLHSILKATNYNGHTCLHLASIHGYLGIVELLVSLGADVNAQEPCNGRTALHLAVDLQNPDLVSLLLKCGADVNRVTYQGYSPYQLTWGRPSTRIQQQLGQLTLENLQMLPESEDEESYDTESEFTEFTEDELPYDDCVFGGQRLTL
# B1: Tissue transglutaminase (TG2, EC 2.3.2.13) (protein)
# chain: AEELVLERCDLELETNGRDHHTADLCREKLVVRRGQPFWLTLHFEGRNYEASVDSLTFSVVTGPAPSQEAGTKARFPLRDAVEEGDWTATVVDQQDCTLSLQLTTPANAPIGLYRLSLEASTGYQGSSFVLGHFILLFNAWCPADAVYLDSEEERQEYVLTQQGFIYQGSAKFIKNIPWNFGQFEDGILDICLILLDVNPKFLKNAGRDCSRRSSPVYVGRVVSGMVNCNDDQGVLLGRWDNNYGDGVSPMSWIGSVDILRRWKNHGCQRVKYGQCWVFAAVACTVLRCLGIPTRVVTNYNSAHDQNSNLLIEYFRNEFGEIQGDKSEMIWNFHCWVESWMTRPDLQPGYEGWQALDPTPQEKSEGTYCCGPVPVRAIKEGDLSTKYDAPFVFAEVNADVVDWIQQDDGSVHKSINRSLIVGLKISTKSVGRDEREDITHTYKYPEGSSEEREAFTRANHLNKLAEKEETGMAMRIRVGQSMNMGSDFDVFAHITNNTAEEYVCRLLLCARTVSYNGILGPECGTKYLLNLNLEPFSEKSVPLCILYEKYRDCLTESNLIKVRALLVEPVINSYLLAERDLYLENPEIKIRILGEPKQKRKLVAEVSLQNPLPVALEGCTFTVEGAGLTEEQKTVEIPDPVEAGEEVKVRMDLLPLHMGLHKLVVNFESDKLKAVKGFRNVIIGPA
# Target: T1, IκBα, P25963
protein,measurement,value
B1,"in vitro BPA labeling of IκBα immunoprecipitates in the presence of Ca2+ (3 mM), probed with horseradish peroxidase-conjugated streptavidin",demonstrated the presence of high-molecular-weight forms (dimeric and polymeric) of IκBα
